Results taken from paper PMC11570956.
Values joined by “and” are separate entries in the source; they are usually repeats but may differ in a detail not shown here. Identical values can stand only once.

Legend:
Experiment in all cases: fluorescence anisotropy
[1] = system: eIF4GI557-1599;eIF4A;eIF4E;eIF4B (Homo sapiens;Homo sapiens?;Homo sapiens;Homo sapiens); details: 20 mM HEPES-KOH pH 7.6, 200 mM KCl, 1 mM MgCl2, 25 ± 0.5 °C; 10 nM labeled RNA; co-factors 1 µM eIF4A, 1 µM eIF4E, 1 mM ATP (2.5 µM proteins also stated)
[2] = system: eIF4GI557-1599;eIF4E (Homo sapiens;Homo sapiens); details: 20 mM HEPES-KOH pH 7.6, 200 mM KCl, 1 mM MgCl2, 25 ± 0.5 °C; 10 nM labeled RNA; co-factors 1 µM eIF4A, 1 µM eIF4E, 1 mM ATP (2.5 µM proteins also stated)
[3] = system: eIF4GI557-1599 (Homo sapiens); details: 20 mM HEPES-KOH pH 7.6, 200 mM KCl, 1 mM MgCl2, 25 ± 0.5 °C; 10 nM labeled RNA; co-factors 1 µM eIF4A, 1 µM eIF4E, 1 mM ATP (2.5 µM proteins also stated)
[4] = system: eIF4GI557-1599;eIF4A;eIF4E (Homo sapiens;;Homo sapiens); details: 20 mM HEPES-KOH pH 7.6, 200 mM KCl, 1 mM MgCl2, 25 ± 0.5 °C, 10 nM labeled RNA, co-factors 1 µM eIF4A, 1 µM eIF4E, 1 mM ATP (2.5 µM proteins also stated)
[5] = system: eIF4GI682-1599;eIF4E (Homo sapiens;Homo sapiens); details: 20 mM HEPES-KOH pH 7.6, 200 mM KCl, 1 mM MgCl2, 25 ± 0.5 °C; 10 nM labeled RNA; co-factors 1 µM eIF4A, 1 µM eIF4E, 1 mM ATP (2.5 µM proteins also stated)
[6] = system: eIF4B (Homo sapiens); details: 20 mM HEPES-KOH pH 7.6, 200 mM KCl, 1 mM MgCl2, 25 ± 0.5 °C; 10 nM labeled RNA; co-factors 1 µM eIF4A, 1 µM eIF4E, 1 mM ATP (2.5 µM proteins also stated)
[7] = system: eIF4A; details: 20 mM HEPES-KOH pH 7.6, 200 mM KCl, 1 mM MgCl2, 25 ± 0.5 °C; 10 nM labeled RNA; co-factors 1 µM eIF4A, 1 µM eIF4E, 1 mM ATP (2.5 µM proteins also stated)
[8] = system: eIF4GI682-1599;eIF4A (Homo sapiens;Homo sapiens?); details: 20 mM HEPES-KOH pH 7.6, 200 mM KCl, 1 mM MgCl2, 25 ± 0.5 °C; 10 nM labeled RNA; co-factors 1 µM eIF4A, 1 µM eIF4E, 1 mM ATP (2.5 µM proteins also stated)
[9] = system: eIF4GI557-1599;eIF4A (Homo sapiens;Homo sapiens?); details: 20 mM HEPES-KOH pH 7.6, 200 mM KCl, 1 mM MgCl2, 25 ± 0.5 °C, 10 nM labeled RNA, co-factors 1 µM eIF4A, 1 µM eIF4E, 1 mM ATP (2.5 µM proteins also stated)
[10] = system: eIF4GI682-1599 (Homo sapiens); details: 20 mM HEPES-KOH pH 7.6, 200 mM KCl, 1 mM MgCl2, 25 ± 0.5 °C; 10 nM labeled RNA; co-factors 1 µM eIF4A, 1 µM eIF4E, 1 mM ATP (2.5 µM proteins also stated)
[11] = system: eIF4GI557-1599;eIF4A;eIF4B (Homo sapiens;;Homo sapiens); details: 20 mM HEPES-KOH pH 7.6, 200 mM KCl, 1 mM MgCl2, 25 ± 0.5 °C, 10 nM labeled RNA, co-factors 1 µM eIF4A, 1 µM eIF4E, 1 mM ATP (2.5 µM proteins also stated)
[12] = system: eIF4GI682-1599;eIF4A;eIF4E (Homo sapiens;;Homo sapiens); details: 20 mM HEPES-KOH pH 7.6, 200 mM KCl, 1 mM MgCl2, 25 ± 0.5 °C; 10 nM labeled RNA; co-factors 1 µM eIF4A, 1 µM eIF4E, 1 mM ATP (2.5 µM proteins also stated)

Substance | Kd [1] [nM] | Kd [2] [nM] | Kd [3] [nM] | Kd [4] [nM] | Kd ([4]; ADP) [nM] | Kd ([4]; no nucleotide) [nM] | Kd [5] [nM] | Kd [6] [nM] | Kd [7] | Kd [8] | Kd [9] [nM] | Kd ([9]; no nucleotide) [nM] | Kd [10] [nM] | Kd [11] [nM] | Kd ([11]; AMP-PNP) [nM] | Kd ([11]; no nucleotide) [nM] | Kd [12]
FGF-9 5'UTR (uncapped) | 14 | 16 | 14 | 18 | 13 | 15 | 110 | 38 | 667 nM and 115 nM | 26 nM and 16 nM | 14 | 16 | 120 | 19 | 20 | 24 | 20 nM and 30 nM
HIF-1α 5'UTR (uncapped) | 19 | 15 | 50 | 22 | 26 | 14 | 142 | 54 | 252 nM and 28 nM | 17 nM and 20 nM | 13 | 17 | 139 | 17 | 14 | 12 | 21 nM and 16 nM
